Measured values taken from publication PMC9245472.

Target: T1, ArgR (Thermotoga neapolitana) (UniProt Q9KWZ0)
T1 sequence: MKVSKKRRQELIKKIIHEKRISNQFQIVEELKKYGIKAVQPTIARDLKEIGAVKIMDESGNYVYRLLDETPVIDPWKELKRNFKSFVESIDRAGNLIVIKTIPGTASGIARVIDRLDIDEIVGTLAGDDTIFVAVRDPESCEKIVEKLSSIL
Assay: EMSA
Conditions: 10 mM Tris-HCl pH 7.5, 250 mM KCl, 5 mM MgCl2, 2.5 mM CaCl2, 2.5% glycerol, 0.5 mM DTT, 100-fold sonicated herring sperm DNA, 37 C 30 min; 2% agarose in TAE …

With “TGTTACTCTTGAGTTACCAAAACAAAAACAAATGAATTTTTCTTCCAGAGGTGTTATATTTATGCTGTATAATTGTATGTGTTTTCAATCTGAAAGATGGAGGTGTTCAACTTGAAGGTGTCGAAAAAAAGAAGACAGGAACTCATAA (double strand) [argRo (ArgRTn)]” the binding was “binds”.
